Test results taken from US20030129606A1.

Assays:
[1] = target: GST-ATF2 (substrate of kinase assays, residues not stated) (Homo sapiens (Human)) (UniProt P15336)
[2] = target: GST-EGF-R (residues 647-688) (Homo sapiens (Human)) (UniProt P00533)
[3] = target: GST-IκB (Schistosoma japonicum (Blood fluke)) [GST: P08515]
[4] = target: MBP

## GST-p38 MAP kinase (from UniProt Q16539) (enzyme)
[1]
  relative phosphorylation (PhosphorImager) (relative phosphorylation): 1
[2]
  relative phosphorylation (PhosphorImager) (relative phosphorylation): 0.04
[3]
  relative phosphorylation (PhosphorImager) (relative phosphorylation): 0.001
[4]
  relative phosphorylation (PhosphorImager) (relative phosphorylation): 0.23
